{
  "source": "paper PMC7187349",
  "about": "“Preparative and Kinetic Analysis of β‐1,4‐ and β‐1,3‐Glucan Phosphorylases Informs Access to Human Milk Oligosaccharide Fragments and Analogues Thereof” (Chembiochem, 2019)",
  "proteins": {"B1": {"name": "cellodextrin phosphorylase (CDP) (Acetivibrio thermocellus) (protein)", "chain": "MITKVTARNNKITPVELLNQKFGNKINLGNFADAVFTDAAFKNVAGIANLPMKAPVMQVLMENCIVSKYLKQFVPDRSVCFVEEGQKFYIVLEDGQKIEVPEDVNKALKATVSDVKHWAGYLTEDGEHVIDLLKPAPGPHFYVNLLIGNRLGFKRTLQTTPKSVVDRFGRGSFRSHAATQVLATRFDMRQEENGFPANRQFYLYEDGKQIFYSALIDDNIVEATCKHSCNRTVIKYKTACNLEITRTIFLVPHKKGFPLATELQRIEIKNASDKARNLSITYTGMFGTGAVHAIFEDVTYTNVIMQSAALYNDKGEFIGITPDYYPEEFKQDTRFVTMIVRNGDEKSFPQSFCTDYNDFVGTGTLEHPAGGCNLNNKLNRKGPGFFALGAPFTVEPGKTVIIDTFTGLSSSKDNENYSDAVMLRELDNLLRYFEKSESVEETLNEIINFHENYGKYFQFNTGNKLFDSGFNRNLAFQVLYQTFMSRSFGQTQKGYREIGFREIQDLFASMYYFINIGYQDFVKELLFEWTANVYKMGYANHNFYWVGKQPGLYSDDSLWLLQAYYRYIIYTKDTSVLNEEVPVADGNNEKRAVRETLKAIIQYSACISVGDHGLPLLDLADWNDCLKIASNSIDGATKEKLYYEQLKKTNGKYGDRFMSDYSESVMNAFLLKLAIDHLAEIATLDNDTQLAQQMSELSKEVTDRIQKHAWKENFFARVLINRYKDGSYTYLGAKGDKLSADPNIDGVYFLNSFAWSVLSDVATDEQIAIMVDVIKKHLLTPYGLRLVTPADLNKIANDTATGHYFFGDRENGAVFKHASMMAVAALIKAAKKVKDNELAKEMARIAYFMIDLVLPYKNLENPFQVAGNPRICTQYINTDTGENIGPLLSGTATWLNLNLISLAGIEYTRDGISFNPILREEETQLNFTLKAPKCSYKFSITKPVGFARMESSEYELFVDGQKIDNTVIPMYTDEKEHIVTLKFK", "notes": "wild type, GH94, recombinant from Escherichia coli; homodimer"}},
  "experiment_in_all_cases": "phosphorylase kinetics, synthetic direction",
  "format_in_all_cases": "biochemical, Acetivibrio thermocellus",
  "conditions_in_all_cases": "acceptor cellobiose (1), matched acceptor; apparent",
  "key": {"[1]": {"substrate": "O=P(O)(O)O[C@H]1O[C@H](CO)[C@H](O)[C@H](O)[C@H]1O", "text": "(§1) phosphorylase kinetics, synthetic direction on cellodextrin phosphorylase (CDP)"}, "[2]": {"substrate": "N[C@H]1[C@@H](OP(=O)(O)O)O[C@H](CO)[C@@H](O)[C@@H]1O", "text": "as §1"}, "[3]": {"substrate": "O=P(O)(O)O[C@H]1O[C@H](CO)[C@@H](O)[C@H](O)[C@H]1O", "text": "as §1"}},
  "data": [
    {"protein": "B1", "values": [
      {"measurement": "Km", "setting": "[1]", "value": "9300 ± 1100", "unit": "µM"},
      {"measurement": "kcat", "setting": "[1]", "value": "0.60 ± 0.02", "unit": "s⁻¹"},
      {"measurement": "kcat/Km", "setting": "[1]", "value": 60, "unit": "M⁻¹ s⁻¹"},
      {"measurement": "Km", "setting": "[2]", "value": "1600 ± 200", "unit": "µM"},
      {"measurement": "kcat", "setting": "[2]", "value": "0.08 ± 0.003", "unit": "s⁻¹"},
      {"measurement": "kcat/Km", "setting": "[2]", "value": 50, "unit": "M⁻¹ s⁻¹"},
      {"measurement": "Km", "setting": "[3]", "value": "3000 ± 600", "unit": "µM"},
      {"measurement": "kcat", "setting": "[3]", "value": "16.4 ± 0.7", "unit": "s⁻¹"},
      {"measurement": "kcat/Km", "setting": "[3]", "value": 5500, "unit": "M⁻¹ s⁻¹"}
    ]}
  ]
}
